# Source: PMC7005279, “Cryo-EM study of an archaeal 30S initiation complex gives insights into evolution of translation initiation” (Communications Biology, 2020)
# Experiments:
# [1] = molecular target: T1, ribosomal protein uS9 of the Pyrococcus abyssi 30S subunit (P. abyssi, UniProt Q9V195 1-135); assay: cryo-EM structure; IC2 complex (Pa-30S:mRNA:aIF1A:aIF2:GDPNP:Met-tRNAi) purified on TALON by N-terminally tagged aIF2β and aIF2α; overall 3.2 Å, classes IC2A 4.2 Å and IC2B 3.3 Å; aIF1A and aIF2 placed by rigid body fitting; conditions: both partners purified
# T1 construct: 30S ribosomal protein uS9 (S9), Pyrococcus abyssi; its C-terminal residue is printed as R135; Subunit of the native 30S; source: endogenous, in 30S subunits purified from P. abyssi
# T1 sequence (Q9V195 whole entry): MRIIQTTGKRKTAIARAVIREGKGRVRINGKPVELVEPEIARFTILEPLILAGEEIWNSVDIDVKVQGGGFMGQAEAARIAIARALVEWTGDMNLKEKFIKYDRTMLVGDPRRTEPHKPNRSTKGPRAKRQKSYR
# [2] = molecular target: ribosomal protein uS11 of the Pyrococcus abyssi 30S subunit (P. abyssi, UniProt P62010 1-137); assay: as above; conditions: both partners purified
Binder,binding result [1],binding result [2]
"ribosomal protein uS19 of the Pyrococcus abyssi 30S subunit (natural protein, 30S ribosomal protein uS19 (S19), Pyrococcus abyssi; Subunit of the native 30S; source: endogenous, in 30S subunits purified from P. abyssi) not shown",binds,
"ribosomal protein uS7 of the Pyrococcus abyssi 30S subunit (natural protein, Subunit of the native 30S; source: endogenous, in 30S subunits purified from P. abyssi) not shown",,binds
